Data from patent publication US20110318339A1.
Blank lines part the entries; values can stand above or below the substance they belong to.

Experiments:
[1] = biological target: rHuman Erythropoietin R/Fc Chimera, CF (Cat# 963-ER) (human) (UniProt P19235); test: Multispot ECL; Fab 52.5 nM
[2] = biological target: rHuman EGF R/Fc Chimera, CF (Cat# 344-ER) (human) (UniProt P00533); test: Multispot ECL; Fab 52.5 nM
[3] = biological target: rHuman IGF-1 sR, (IGF-1 sR), CF (Cat# 391-GR) (human) (UniProt P08069); test: Multispot ECL; Fab 52.5 nM
[4] = biological target: rHuman ErbB2/Fc Chimera, CF (Cat# 1129-ER) (human) (UniProt P04626); test: Multispot ECL; Fab 52.5 nM
[5] = biological target: rHuman HGF R/c-MET/Fc Chimera, CF (Cat# 358-MT/CF) (human) (UniProt P08581); test: Multispot ECL; Fab 52.5 nM
[6] = biological target: rHuman Notch-1/Fc Chimera, CF (Cat# 3647-TK) (human) (UniProt P46531); test: Multispot ECL; Fab 52.5 nM
[7] = biological target: rHuman Erythropoietin R/Fc Chimera, CF (Cat# 963-ER) (human) (UniProt P19235); test: Multispot ECL; Fab 210 nM
[8] = biological target: rHuman EGF R/Fc Chimera, CF (Cat# 344-ER) (human) (UniProt P00533); test: Multispot ECL; Fab 210 nM
[9] = biological target: rHuman IGF-1 sR, (IGF-1 sR), CF (Cat# 391-GR) (human) (UniProt P08069); test: Multispot ECL; Fab 210 nM
[10] = biological target: rHuman ErbB2/Fc Chimera, CF (Cat# 1129-ER) (human) (UniProt P04626); test: Multispot ECL; Fab 210 nM
[11] = biological target: rHuman HGF R/c-MET/Fc Chimera, CF (Cat# 358-MT/CF) (human) (UniProt P08581); test: Multispot ECL; Fab 210 nM
[12] = biological target: rHuman Notch-1/Fc Chimera, CF (Cat# 3647-TK) (human) (UniProt P46531); test: Multispot ECL; Fab 210 nM
[13] = biological target: rHuman Erythropoietin R/Fc Chimera, CF (Cat# 963-ER) (human) (UniProt P19235); test: Multispot ECL; Fab 3.3 nM
[14] = biological target: rHuman EGF R/Fc Chimera, CF (Cat# 344-ER) (human) (UniProt P00533); test: Multispot ECL; Fab 3.3 nM
[15] = biological target: rHuman IGF-1 sR, (IGF-1 sR), CF (Cat# 391-GR) (human) (UniProt P08069); test: Multispot ECL; Fab 3.3 nM
[16] = biological target: rHuman ErbB2/Fc Chimera, CF (Cat# 1129-ER) (human) (UniProt P04626); test: Multispot ECL; Fab 3.3 nM
[17] = biological target: rHuman HGF R/c-MET/Fc Chimera, CF (Cat# 358-MT/CF) (human) (UniProt P08581); test: Multispot ECL; Fab 3.3 nM
[18] = biological target: rHuman Notch-1/Fc Chimera, CF (Cat# 3647-TK) (human) (UniProt P46531); test: Multispot ECL; Fab 3.3 nM
[19] = biological target: rHuman Erythropoietin R/Fc Chimera, CF (Cat# 963-ER) (human) (UniProt P19235); test: Multispot ECL; Fab […]
[20] = biological target: rHuman EGF R/Fc Chimera, CF (Cat# 344-ER) (human) (UniProt P00533); test: Multispot ECL; Fab […]
[21] = biological target: rHuman IGF-1 sR, (IGF-1 sR), CF (Cat# 391-GR) (human) (UniProt P08069); test: Multispot ECL; Fab […]
[22] = biological target: rHuman ErbB2/Fc Chimera, CF (Cat# 1129-ER) (human) (UniProt P04626); test: Multispot ECL; Fab […]
[23] = biological target: rHuman HGF R/c-MET/Fc Chimera, CF (Cat# 358-MT/CF) (human) (UniProt P08581); test: Multispot ECL; Fab […]
[24] = biological target: rHuman Notch-1/Fc Chimera, CF (Cat# 3647-TK) (human) (UniProt P46531); test: Multispot ECL; Fab […]
[25] = biological target: rHuman Erythropoietin R/Fc Chimera, CF (Cat# 963-ER) (human) (UniProt P19235); test: Multispot ECL; Fab 85.0 nM
[26] = biological target: rHuman EGF R/Fc Chimera, CF (Cat# 344-ER) (human) (UniProt P00533); test: Multispot ECL; Fab 85.0 nM
[27] = biological target: rHuman IGF-1 sR, (IGF-1 sR), CF (Cat# 391-GR) (human) (UniProt P08069); test: Multispot ECL; Fab 85.0 nM
[28] = biological target: rHuman P-Cadherin/Fc Chimera, CF (Cat# 861-PC) (human) (UniProt P22223); test: Multispot ECL; Fab 85.0 nM
[29] = biological target: rHuman ErbB2/Fc Chimera, CF (Cat# 1129-ER) (human) (UniProt P04626); test: Multispot ECL; Fab 85.0 nM
[30] = biological target: rHuman CD44/Fc Chimera, CF (Cat# 3660-CD) (human) (UniProt P16070); test: Multispot ECL; Fab 85.0 nM
[31] = biological target: rHuman HGF R/c-MET/Fc Chimera, CF (Cat# 358-MT/CF) (human) (UniProt P08581); test: Multispot ECL; Fab 85.0 nM
[32] = biological target: rHuman Notch-1/Fc Chimera, CF (Cat# 3647-TK) (human) (UniProt P46531); test: Multispot ECL; Fab 85.0 nM
[33] = biological target: rHuman Erythropoietin R/Fc Chimera, CF (Cat# 963-ER) (human) (UniProt P19235); test: Multispot ECL; Fab 340 nM
[34] = biological target: rHuman EGF R/Fc Chimera, CF (Cat# 344-ER) (human) (UniProt P00533); test: Multispot ECL; Fab 340 nM
[35] = biological target: rHuman IGF-1 sR, (IGF-1 sR), CF (Cat# 391-GR) (human) (UniProt P08069); test: Multispot ECL; Fab 340 nM
[36] = biological target: rHuman P-Cadherin/Fc Chimera, CF (Cat# 861-PC) (human) (UniProt P22223); test: Multispot ECL; Fab 340 nM
[37] = biological target: rHuman ErbB2/Fc Chimera, CF (Cat# 1129-ER) (human) (UniProt P04626); test: Multispot ECL; Fab 340 nM
[38] = biological target: rHuman CD44/Fc Chimera, CF (Cat# 3660-CD) (human) (UniProt P16070); test: Multispot ECL; Fab 340 nM
[39] = biological target: rHuman HGF R/c-MET/Fc Chimera, CF (Cat# 358-MT/CF) (human) (UniProt P08581); test: Multispot ECL; Fab 340 nM
[40] = biological target: rHuman Notch-1/Fc Chimera, CF (Cat# 3647-TK) (human) (UniProt P46531); test: Multispot ECL; Fab 340 nM
[41] = biological target: rHuman Erythropoietin R/Fc Chimera, CF (Cat# 963-ER) (human) (UniProt P19235); test: Multispot ECL; Fab 170 nM
[42] = biological target: rHuman EGF R/Fc Chimera, CF (Cat# 344-ER) (human) (UniProt P00533); test: Multispot ECL; Fab 170 nM
[43] = biological target: rHuman IGF-1 sR, (IGF-1 sR), CF (Cat# 391-GR) (human) (UniProt P08069); test: Multispot ECL; Fab 170 nM
[44] = biological target: rHuman P-Cadherin/Fc Chimera, CF (Cat# 861-PC) (human) (UniProt P22223); test: Multispot ECL; Fab 170 nM
[45] = biological target: rHuman ErbB2/Fc Chimera, CF (Cat# 1129-ER) (human) (UniProt P04626); test: Multispot ECL; Fab 170 nM
[46] = biological target: rHuman CD44/Fc Chimera, CF (Cat# 3660-CD) (human) (UniProt P16070); test: Multispot ECL; Fab 170 nM
[47] = biological target: rHuman HGF R/c-MET/Fc Chimera, CF (Cat# 358-MT/CF) (human) (UniProt P08581); test: Multispot ECL; Fab 170 nM
[48] = biological target: rHuman Notch-1/Fc Chimera, CF (Cat# 3647-TK) (human) (UniProt P46531); test: Multispot ECL; Fab 170 nM
[49] = biological target: rHuman P-Cadherin/Fc Chimera, CF (Cat# 861-PC) (human) (UniProt P22223); test: Multispot ECL; Fab […]
[50] = biological target: rHuman CD44/Fc Chimera, CF (Cat# 3660-CD) (human) (UniProt P16070); test: Multispot ECL; Fab […]

Chain of rHuman Erythropoietin R/Fc Chimera, CF (Cat# 963-ER) (human) (P19235 25-250, change not shown): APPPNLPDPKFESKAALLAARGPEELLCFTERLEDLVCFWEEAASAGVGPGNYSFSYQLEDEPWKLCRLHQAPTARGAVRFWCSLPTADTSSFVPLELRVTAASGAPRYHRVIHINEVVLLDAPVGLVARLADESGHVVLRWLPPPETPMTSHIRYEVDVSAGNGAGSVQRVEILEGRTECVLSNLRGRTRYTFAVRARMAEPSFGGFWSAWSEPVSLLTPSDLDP

- ECL signal [1]: 1320
- ECL signal [2]: 1110
- ECL signal [3]: 911
- ECL signal [4]: 1510
- ECL signal [5]: 1290
- ECL signal [6]: 1320
- ECL signal [7]: 2120
- ECL signal [8]: 1620
- ECL signal [9]: 1430
- ECL signal [10]: 1980
- ECL signal [11]: 2060
- ECL signal [12]: 1970
- ECL signal [13]: 695
- ECL signal [14]: 847
- ECL signal [15]: 743
- ECL signal [16]: 1030
- ECL signal [17]: 849
- ECL signal [18]: 726
- ECL signal [19]: 776
- ECL signal [20]: 824
- ECL signal [21]: 814
- ECL signal [22]: 930
- ECL signal [23]: 981
- ECL signal [24]: 669
Substance: Fab VH4-31_IGHD2-15*01_IGHJ2*01 & V1-4_IGLJ4*01

- ECL signal [25]: 817
- ECL signal [26]: 1000
- ECL signal [27]: 891
- ECL signal [28]: 709
- ECL signal [29]: 844
- ECL signal [30]: 693
- ECL signal [31]: 998
- ECL signal [32]: 780
- ECL signal [33]: 1260
- ECL signal [34]: 1210
- ECL signal [35]: 1040
- ECL signal [36]: 1160
- ECL signal [37]: 1230
- ECL signal [38]: 959
- ECL signal [39]: 1240
- ECL signal [40]: 1210
- ECL signal [41]: 790
- ECL signal [42]: 826
- ECL signal [43]: 832
- ECL signal [44]: 744
- ECL signal [45]: 964
- ECL signal [46]: 660
- ECL signal [47]: 757
- ECL signal [48]: 816
- ECL signal [19]: 494
- ECL signal [20]: 528
- ECL signal [21]: 646
- ECL signal [49]: 421
- ECL signal [22]: 866
- ECL signal [50]: 522
- ECL signal [23]: 607
- ECL signal [24]: 649
Substance: Fab VH4-34_IGHD7-27*01_IGHJ4*01 & V4-6_IGLJ4*01
